Test [1] concerns the target CBP, A549 nuclear extract (UniProt Q92793). Nature of the test: FLAG IP/MS. The conditions noted are these: nuclear fractions from A549 cells; four individual replicates; read off a plot.
Test [2] concerns the target p300, A549 nuclear extract (UniProt Q09472). Put plainly: FLAG IP/MS. The conditions noted are these: nuclear fractions from A549 cells; four individual replicates; read off a plot.
Chain of UniProt Q09472 (Q09472 whole entry): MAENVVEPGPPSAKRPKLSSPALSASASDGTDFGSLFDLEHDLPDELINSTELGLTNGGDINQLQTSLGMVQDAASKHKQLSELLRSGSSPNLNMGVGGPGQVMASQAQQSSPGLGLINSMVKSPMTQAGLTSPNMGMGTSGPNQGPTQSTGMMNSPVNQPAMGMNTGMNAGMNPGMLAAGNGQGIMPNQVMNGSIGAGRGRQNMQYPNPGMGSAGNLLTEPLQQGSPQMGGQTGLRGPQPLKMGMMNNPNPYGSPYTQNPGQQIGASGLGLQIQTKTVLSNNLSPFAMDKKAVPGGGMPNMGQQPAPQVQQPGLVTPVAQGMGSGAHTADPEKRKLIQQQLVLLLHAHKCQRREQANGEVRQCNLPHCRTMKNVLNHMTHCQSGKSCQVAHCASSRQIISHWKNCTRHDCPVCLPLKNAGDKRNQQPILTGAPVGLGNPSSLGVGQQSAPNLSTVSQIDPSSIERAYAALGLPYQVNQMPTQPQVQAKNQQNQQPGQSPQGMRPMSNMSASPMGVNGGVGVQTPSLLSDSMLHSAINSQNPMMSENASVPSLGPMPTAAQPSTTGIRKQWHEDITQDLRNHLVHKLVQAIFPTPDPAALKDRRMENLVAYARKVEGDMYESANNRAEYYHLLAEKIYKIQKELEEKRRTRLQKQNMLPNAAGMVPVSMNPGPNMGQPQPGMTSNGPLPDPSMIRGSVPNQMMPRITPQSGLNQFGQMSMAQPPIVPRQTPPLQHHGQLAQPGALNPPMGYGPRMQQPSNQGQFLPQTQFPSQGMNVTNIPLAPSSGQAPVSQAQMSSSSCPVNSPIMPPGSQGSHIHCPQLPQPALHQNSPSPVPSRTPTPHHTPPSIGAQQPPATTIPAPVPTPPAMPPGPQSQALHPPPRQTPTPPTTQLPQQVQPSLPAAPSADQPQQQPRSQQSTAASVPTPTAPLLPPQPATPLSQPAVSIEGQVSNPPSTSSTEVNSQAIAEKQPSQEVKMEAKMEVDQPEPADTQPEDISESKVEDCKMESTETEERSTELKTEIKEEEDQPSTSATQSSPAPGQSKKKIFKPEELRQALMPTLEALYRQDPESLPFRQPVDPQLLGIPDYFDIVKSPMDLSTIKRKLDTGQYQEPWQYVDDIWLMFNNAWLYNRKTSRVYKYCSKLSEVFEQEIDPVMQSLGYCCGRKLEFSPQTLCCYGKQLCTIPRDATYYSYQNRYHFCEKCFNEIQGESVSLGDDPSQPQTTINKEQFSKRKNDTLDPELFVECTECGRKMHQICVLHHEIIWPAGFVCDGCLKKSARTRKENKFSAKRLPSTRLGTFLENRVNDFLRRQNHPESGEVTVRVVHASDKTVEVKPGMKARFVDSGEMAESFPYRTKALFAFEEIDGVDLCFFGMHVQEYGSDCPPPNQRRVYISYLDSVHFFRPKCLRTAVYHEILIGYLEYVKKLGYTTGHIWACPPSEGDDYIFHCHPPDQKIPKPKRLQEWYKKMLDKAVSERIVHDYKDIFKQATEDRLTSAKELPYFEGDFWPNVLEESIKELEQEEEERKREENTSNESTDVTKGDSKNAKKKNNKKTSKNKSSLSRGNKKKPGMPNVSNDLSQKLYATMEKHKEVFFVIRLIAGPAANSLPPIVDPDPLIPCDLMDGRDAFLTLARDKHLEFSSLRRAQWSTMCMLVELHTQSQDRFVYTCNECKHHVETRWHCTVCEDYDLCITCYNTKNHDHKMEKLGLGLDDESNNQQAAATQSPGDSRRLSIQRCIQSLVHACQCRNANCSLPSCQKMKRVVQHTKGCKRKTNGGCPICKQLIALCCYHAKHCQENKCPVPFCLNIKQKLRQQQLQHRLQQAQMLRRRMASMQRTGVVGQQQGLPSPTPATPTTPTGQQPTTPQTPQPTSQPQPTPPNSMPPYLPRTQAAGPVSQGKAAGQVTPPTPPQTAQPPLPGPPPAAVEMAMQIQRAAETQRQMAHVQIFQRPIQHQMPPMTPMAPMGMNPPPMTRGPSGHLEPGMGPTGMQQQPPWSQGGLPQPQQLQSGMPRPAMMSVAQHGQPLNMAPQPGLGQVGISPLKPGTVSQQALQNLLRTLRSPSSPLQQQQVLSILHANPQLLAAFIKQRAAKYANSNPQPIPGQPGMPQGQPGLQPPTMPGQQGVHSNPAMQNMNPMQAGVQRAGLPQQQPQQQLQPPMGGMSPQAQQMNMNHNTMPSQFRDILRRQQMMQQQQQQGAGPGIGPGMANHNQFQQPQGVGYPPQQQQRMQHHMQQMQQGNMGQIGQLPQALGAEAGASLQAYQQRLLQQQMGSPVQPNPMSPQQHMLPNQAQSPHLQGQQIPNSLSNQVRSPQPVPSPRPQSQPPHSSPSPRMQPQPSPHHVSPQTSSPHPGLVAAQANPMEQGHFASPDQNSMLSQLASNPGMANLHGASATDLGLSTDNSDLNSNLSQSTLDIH

Chain of UniProt Q92793 (Q92793 whole entry): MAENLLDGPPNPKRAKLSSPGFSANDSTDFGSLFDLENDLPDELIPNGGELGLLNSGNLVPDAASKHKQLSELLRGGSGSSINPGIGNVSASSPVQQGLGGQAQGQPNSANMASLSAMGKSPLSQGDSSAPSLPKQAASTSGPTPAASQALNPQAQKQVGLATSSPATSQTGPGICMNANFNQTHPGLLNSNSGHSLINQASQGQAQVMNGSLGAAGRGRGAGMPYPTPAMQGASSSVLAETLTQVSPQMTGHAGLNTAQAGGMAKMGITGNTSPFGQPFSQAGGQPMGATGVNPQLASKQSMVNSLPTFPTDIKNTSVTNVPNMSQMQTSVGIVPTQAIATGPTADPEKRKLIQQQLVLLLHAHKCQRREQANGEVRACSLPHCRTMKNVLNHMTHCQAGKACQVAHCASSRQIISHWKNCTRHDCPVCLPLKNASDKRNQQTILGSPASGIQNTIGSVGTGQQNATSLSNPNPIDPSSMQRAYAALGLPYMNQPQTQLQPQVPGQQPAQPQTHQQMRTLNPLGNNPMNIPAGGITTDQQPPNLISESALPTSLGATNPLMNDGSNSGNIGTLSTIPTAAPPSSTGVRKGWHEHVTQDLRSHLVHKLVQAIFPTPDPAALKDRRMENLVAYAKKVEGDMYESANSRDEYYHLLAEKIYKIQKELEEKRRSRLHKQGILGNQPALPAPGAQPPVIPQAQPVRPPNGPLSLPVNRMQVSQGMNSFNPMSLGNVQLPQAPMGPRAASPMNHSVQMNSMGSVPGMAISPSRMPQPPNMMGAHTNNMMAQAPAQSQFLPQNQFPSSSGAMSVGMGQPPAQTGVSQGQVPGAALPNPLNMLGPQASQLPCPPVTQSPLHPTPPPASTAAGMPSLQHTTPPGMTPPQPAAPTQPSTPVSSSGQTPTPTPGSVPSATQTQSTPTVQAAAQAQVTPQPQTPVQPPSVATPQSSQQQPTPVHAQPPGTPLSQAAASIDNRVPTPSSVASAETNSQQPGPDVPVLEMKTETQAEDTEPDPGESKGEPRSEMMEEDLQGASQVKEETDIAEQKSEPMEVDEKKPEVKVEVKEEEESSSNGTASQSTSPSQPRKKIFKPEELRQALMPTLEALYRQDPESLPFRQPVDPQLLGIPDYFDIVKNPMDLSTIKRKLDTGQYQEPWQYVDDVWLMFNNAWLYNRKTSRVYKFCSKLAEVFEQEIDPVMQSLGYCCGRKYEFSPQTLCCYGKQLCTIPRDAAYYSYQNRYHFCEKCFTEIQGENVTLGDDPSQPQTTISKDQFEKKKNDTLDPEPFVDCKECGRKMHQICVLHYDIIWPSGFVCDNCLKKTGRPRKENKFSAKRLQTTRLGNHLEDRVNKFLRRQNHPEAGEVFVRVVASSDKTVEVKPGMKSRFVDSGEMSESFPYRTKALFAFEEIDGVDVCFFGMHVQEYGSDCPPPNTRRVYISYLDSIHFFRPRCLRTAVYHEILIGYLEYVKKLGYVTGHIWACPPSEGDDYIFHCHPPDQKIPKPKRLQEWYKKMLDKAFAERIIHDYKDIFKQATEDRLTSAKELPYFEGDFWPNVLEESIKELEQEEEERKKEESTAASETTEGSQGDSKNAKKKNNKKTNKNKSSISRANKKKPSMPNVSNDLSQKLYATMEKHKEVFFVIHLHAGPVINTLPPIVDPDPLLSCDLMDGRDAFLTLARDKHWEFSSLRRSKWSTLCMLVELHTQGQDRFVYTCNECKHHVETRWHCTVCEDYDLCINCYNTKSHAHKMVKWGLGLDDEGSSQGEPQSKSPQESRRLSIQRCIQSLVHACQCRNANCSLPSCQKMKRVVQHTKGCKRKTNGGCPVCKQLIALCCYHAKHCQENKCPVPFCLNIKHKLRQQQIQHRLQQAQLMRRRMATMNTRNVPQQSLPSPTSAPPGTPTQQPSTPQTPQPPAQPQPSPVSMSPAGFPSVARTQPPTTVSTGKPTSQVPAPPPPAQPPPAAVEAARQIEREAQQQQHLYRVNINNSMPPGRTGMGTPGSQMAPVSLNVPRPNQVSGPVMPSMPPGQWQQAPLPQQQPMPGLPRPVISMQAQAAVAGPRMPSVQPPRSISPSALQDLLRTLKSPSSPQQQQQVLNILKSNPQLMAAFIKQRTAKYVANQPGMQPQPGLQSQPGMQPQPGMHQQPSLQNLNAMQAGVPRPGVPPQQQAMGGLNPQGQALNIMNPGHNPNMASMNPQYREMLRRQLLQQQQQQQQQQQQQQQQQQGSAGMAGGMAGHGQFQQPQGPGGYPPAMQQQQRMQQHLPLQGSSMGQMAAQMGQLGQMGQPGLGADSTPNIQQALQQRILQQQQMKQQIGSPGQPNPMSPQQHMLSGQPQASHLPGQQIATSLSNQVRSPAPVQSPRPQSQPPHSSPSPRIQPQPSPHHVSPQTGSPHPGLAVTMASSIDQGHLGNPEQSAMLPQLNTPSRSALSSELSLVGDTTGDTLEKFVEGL

Consider “FLAG-tagged WT NRF2, stably expressed in A549 (TRE3G-driven, dox-induced) (from UniProt Q16236) Neh4: …>… (F>A; D>A; C>A; L>A); Neh5: …>… (Q>A; D>A; E>A; L>A)”, for which the other: log2(fold change) in test [1] was -3.8; in test [2], -3.2.

These data come from article PMC12187939.
